Series [1] concerns the target T1, S207D LysRS(ΔN65) (human, UniProt Q15046 66-597, S207D). Kind of series: fluorescence anisotropy; 1 mM Mg2+; FA: 20 mM Tris-HCl pH 8, 15 mM NaCl, 35 mM KCl, 1 mM MgCl2, 20 nM RNA (30 nM per supplement), temperature not stated; XL-SHAPE: 20 mM HEPES pH 7.5, 60 mM NaCl. The conditions noted are these: protein: recombinant; tags: His; chain copies: 2; label: 3' fluorescein (FTSC); tRNA fold. (Polarisation of emitted light reports the rotation of a fluorescent probe.)

Series [2] has as its target T2, WT LysRS(ΔN65) (human, UniProt Q15046 66-597). The description is as above. The note with it: protein: recombinant; tags: His; chain copies: 2; label: 3' fluorescein (FTSC); tRNA fold.
Series [3] deals with T1, S207D LysRS(ΔN65). Kind of series: fluorescence anisotropy; 1 mM Mg2+. The conditions noted are these: protein: recombinant, tags: His, chain copies: 2.
Series [4] concerns the target T2, WT LysRS(ΔN65). Kind of series: fluorescence anisotropy; 1 mM Mg2+. The conditions noted are these: protein: recombinant, tags: His, chain copies: 2.
The mark [5] stands for this setting: label: 3' fluorescein (FTSC) on RNA, 21-nt DNA annealed to folded RNA, 1.5x DNA.
The mark [6] stands for this setting: label: 3' fluorescein (FTSC) on RNA, 18-nt DNA annealed to PBS of folded RNA, 1.5x DNA.
The mark [7] stands for this setting: label: 3' fluorescein (FTSC) in FA, folded domain with TLE hairpin.
Where [8] appears, read: label: 3' fluorescein (FTSC) on RNA, 29-nt DNA annealed, extends into TLE stem, 1.5x DNA.
[9] abbreviates: label: 3' fluorescein (FTSC) on RNA, 24-nt DNA annealed, extends into TLE stem, 1.5x DNA.

T1 sequence (Q15046 66-597 S207D): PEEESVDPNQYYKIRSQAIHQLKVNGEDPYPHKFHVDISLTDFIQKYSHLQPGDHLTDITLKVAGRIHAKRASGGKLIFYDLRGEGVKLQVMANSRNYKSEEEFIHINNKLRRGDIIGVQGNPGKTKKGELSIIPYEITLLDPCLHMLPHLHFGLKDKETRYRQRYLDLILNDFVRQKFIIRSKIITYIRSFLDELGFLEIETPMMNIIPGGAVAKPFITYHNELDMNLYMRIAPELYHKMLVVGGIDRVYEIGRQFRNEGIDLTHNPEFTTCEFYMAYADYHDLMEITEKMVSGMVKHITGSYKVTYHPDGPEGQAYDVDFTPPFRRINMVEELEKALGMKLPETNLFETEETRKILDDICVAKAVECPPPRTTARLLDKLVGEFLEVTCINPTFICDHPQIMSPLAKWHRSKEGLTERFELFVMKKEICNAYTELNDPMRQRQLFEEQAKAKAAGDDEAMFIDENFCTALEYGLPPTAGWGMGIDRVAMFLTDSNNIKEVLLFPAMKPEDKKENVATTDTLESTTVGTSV
T2 sequence (Q15046 66-597, stated change not applied): as the sequence (Q15046 66-597 S207D) above, with D142S counted along it

B1: tRNALys3 (structured_RNA)
RNA: GCCCGGAUAGCUCAGUCGGUAGAGCAUCAGACUUUUAAUCUGAGGGUCCAGGGUUCAAGUCCCUGUUCGGGCGCCA
modifications: unmodified transcript
One may read the Kd as a measure of binding affinity in units of concentration. For the molecule B1, the Kd in series [1] was determined as 470 ± 190 nM; in series [2], 407 ± 33 nM.

B2: PBS/TLE105:antiPBS18+3 (mixed)
RNA: GGGCUCUGGUAACUAGAGAUCCCUCAGACCCUUUUAGUCAGUGUGGAAAAUCUCUAGCAGUGGCGCCCGAACAGGGACUUGAAAGCGAAAGUAAAGCCAGAGCCC
DNA: GTCCCTGTTCGGGCGCCACTG
On to B2, for which the Kd in series [3] (setting [5]) is 305 ± 75 nM; in series [4] (setting [5]), 488 ± 171 nM.

B3: PBS/TLE105:antiPBS18 (mixed)
RNA: GGGCUCUGGUAACUAGAGAUCCCUCAGACCCUUUUAGUCAGUGUGGAAAAUCUCUAGCAGUGGCGCCCGAACAGGGACUUGAAAGCGAAAGUAAAGCCAGAGCCC
DNA: GTCCCTGTTCGGGCGCCA
On to B3, for which the Kd in series [3] (setting [6]) is 417 ± 90 nM; in series [4] (setting [6]) it was 240 ± 95 nM.

B4: PBS/TLE105 (structured_RNA)
RNA: GGGCUCUGGUAACUAGAGAUCCCUCAGACCCUUUUAGUCAGUGUGGAAAAUCUCUAGCAGUGGCGCCCGAACAGGGACUUGAAAGCGAAAGUAAAGCCAGAGCCC
On to B4, for which the values for the Kd in series [3] (setting [7]) and in series [4] (setting [7]) were 315 ± 130 nM and 330 ± 115 nM, respectively.

B5: PBS/TLE105:antiPBS18+11 (mixed)
RNA: GGGCUCUGGUAACUAGAGAUCCCUCAGACCCUUUUAGUCAGUGUGGAAAAUCUCUAGCAGUGGCGCCCGAACAGGGACUUGAAAGCGAAAGUAAAGCCAGAGCCC
DNA: GTCCCTGTTCGGGCGCCACTGCTAGAGAT
In the case of B5, the Kd in series [3] (setting [8]) was determined as 949 ± 148 nM; in series [4] (setting [8]), 1010 ± 639 nM.

B6: PBS/TLE105:antiPBS18+6 (mixed)
RNA: GGGCUCUGGUAACUAGAGAUCCCUCAGACCCUUUUAGUCAGUGUGGAAAAUCUCUAGCAGUGGCGCCCGAACAGGGACUUGAAAGCGAAAGUAAAGCCAGAGCCC
DNA: GTCCCTGTTCGGGCGCCACTGCTA
Take B6: the Kd in series [3] (setting [9]) stood at 590 ± 182 nM; in series [4] (setting [9]), 865 ± 379 nM.
